Earlier results in PMC9241160.

Biological target: Fibrinogen beta chain N-terminal fibrinopeptide (Homo sapiens) (UniProt P02675)

Question: With SdrG N2-N3 (from UniProt Q9KI13) as the substance, how does the Kd read?
Answer: 400 nM
